Data: the Human Domainome abundance scans (Beltran et al. 2025)
± gives the uncertainty stated by the source.

B1: Zinc finger MYM-type protein 6, residues 427 to 504; numbered along this chain, O95789 (parent)
chain: KLKCQHCNHLFATKPELLFYKGKMFLFCGKNCSDEYKKKNKVVAMCDYCKLQKIIKETVRFSGVDKPFCSEVCKFLSA

Variants of: B1
Assay: abundance fitness (aPCA) (normalised: wild type 0, dead -1); higher = more abundant; growth selection in yeast, the domain comes from the species named
Conditions: Homo sapiens

Row | Variant | abundance fitness
1 | KLKCQHCNHLFATKPYLLFYKGKMFLFCGKNCSDEYKKKNKVVAMCDYCKLQKIIKETVRFSGVDKPFCSEVCKFLSA | -0.194 ± 0.2
2 | KLKCQHCNHLFATKPEALFYKGKMFLFCGKNCSDEYKKKNKVVAMCDYCKLQKIIKETVRFSGVDKPFCSEVCKFLSA | -0.003 ± 0.032
3 | KLKCQHCNHLFATKPECLFYKGKMFLFCGKNCSDEYKKKNKVVAMCDYCKLQKIIKETVRFSGVDKPFCSEVCKFLSA | -0.011 ± 0.046
4 | KLKCQHCNHLFATKPEDLFYKGKMFLFCGKNCSDEYKKKNKVVAMCDYCKLQKIIKETVRFSGVDKPFCSEVCKFLSA | -0.044 ± 0.051
5 | KLKCQHCNHLFATKPEELFYKGKMFLFCGKNCSDEYKKKNKVVAMCDYCKLQKIIKETVRFSGVDKPFCSEVCKFLSA | 0.166 ± 0.037
6 | KLKCQHCNHLFATKPEFLFYKGKMFLFCGKNCSDEYKKKNKVVAMCDYCKLQKIIKETVRFSGVDKPFCSEVCKFLSA | -0.168 ± 0.083
7 | KLKCQHCNHLFATKPEGLFYKGKMFLFCGKNCSDEYKKKNKVVAMCDYCKLQKIIKETVRFSGVDKPFCSEVCKFLSA | -0.042 ± 0.03
8 | KLKCQHCNHLFATKPEKLFYKGKMFLFCGKNCSDEYKKKNKVVAMCDYCKLQKIIKETVRFSGVDKPFCSEVCKFLSA | 0.102 ± 0.046
9 | KLKCQHCNHLFATKPEMLFYKGKMFLFCGKNCSDEYKKKNKVVAMCDYCKLQKIIKETVRFSGVDKPFCSEVCKFLSA | 0.061 ± 0.054
10 | KLKCQHCNHLFATKPENLFYKGKMFLFCGKNCSDEYKKKNKVVAMCDYCKLQKIIKETVRFSGVDKPFCSEVCKFLSA | 0.19 ± 0.38
11 | KLKCQHCNHLFATKPEPLFYKGKMFLFCGKNCSDEYKKKNKVVAMCDYCKLQKIIKETVRFSGVDKPFCSEVCKFLSA | 0.024 ± 0.038
12 | KLKCQHCNHLFATKPEQLFYKGKMFLFCGKNCSDEYKKKNKVVAMCDYCKLQKIIKETVRFSGVDKPFCSEVCKFLSA | 0.156 ± 0.054
13 | KLKCQHCNHLFATKPESLFYKGKMFLFCGKNCSDEYKKKNKVVAMCDYCKLQKIIKETVRFSGVDKPFCSEVCKFLSA | 0.117 ± 0.04
14 | KLKCQHCNHLFATKPETLFYKGKMFLFCGKNCSDEYKKKNKVVAMCDYCKLQKIIKETVRFSGVDKPFCSEVCKFLSA | 0.086 ± 0.041
15 | KLKCQHCNHLFATKPEWLFYKGKMFLFCGKNCSDEYKKKNKVVAMCDYCKLQKIIKETVRFSGVDKPFCSEVCKFLSA | 0.065 ± 0.03
16 | KLKCQHCNHLFATKPEYLFYKGKMFLFCGKNCSDEYKKKNKVVAMCDYCKLQKIIKETVRFSGVDKPFCSEVCKFLSA | -0.081 ± 0.072
17 | KLKCQHCNHLFATKPELAFYKGKMFLFCGKNCSDEYKKKNKVVAMCDYCKLQKIIKETVRFSGVDKPFCSEVCKFLSA | -0.031 ± 0.036
18 | KLKCQHCNHLFATKPELCFYKGKMFLFCGKNCSDEYKKKNKVVAMCDYCKLQKIIKETVRFSGVDKPFCSEVCKFLSA | -0.113 ± 0.13

Row | Variant | abundance fitness
19 | KLKCQHCNHLFATKPELGFYKGKMFLFCGKNCSDEYKKKNKVVAMCDYCKLQKIIKETVRFSGVDKPFCSEVCKFLSA | -0.033 ± 0.032
20 | KLKCQHCNHLFATKPELIFYKGKMFLFCGKNCSDEYKKKNKVVAMCDYCKLQKIIKETVRFSGVDKPFCSEVCKFLSA | -0.159 ± 0.13
21 | KLKCQHCNHLFATKPELKFYKGKMFLFCGKNCSDEYKKKNKVVAMCDYCKLQKIIKETVRFSGVDKPFCSEVCKFLSA | -0.059 ± 0.088
22 | KLKCQHCNHLFATKPELPFYKGKMFLFCGKNCSDEYKKKNKVVAMCDYCKLQKIIKETVRFSGVDKPFCSEVCKFLSA | -0.307 ± 0.039
23 | KLKCQHCNHLFATKPELQFYKGKMFLFCGKNCSDEYKKKNKVVAMCDYCKLQKIIKETVRFSGVDKPFCSEVCKFLSA | -0.042 ± 0.068
24 | KLKCQHCNHLFATKPELRFYKGKMFLFCGKNCSDEYKKKNKVVAMCDYCKLQKIIKETVRFSGVDKPFCSEVCKFLSA | -0.077 ± 0.03
25 | KLKCQHCNHLFATKPELTFYKGKMFLFCGKNCSDEYKKKNKVVAMCDYCKLQKIIKETVRFSGVDKPFCSEVCKFLSA | -0.081 ± 0.04
26 | KLKCQHCNHLFATKPELVFYKGKMFLFCGKNCSDEYKKKNKVVAMCDYCKLQKIIKETVRFSGVDKPFCSEVCKFLSA | -0.02 ± 0.037
27 | KLKCQHCNHLFATKPELWFYKGKMFLFCGKNCSDEYKKKNKVVAMCDYCKLQKIIKETVRFSGVDKPFCSEVCKFLSA | -0.019 ± 0.031
28 | KLKCQHCNHLFATKPELLAYKGKMFLFCGKNCSDEYKKKNKVVAMCDYCKLQKIIKETVRFSGVDKPFCSEVCKFLSA | 0.057 ± 0.03
29 | KLKCQHCNHLFATKPELLDYKGKMFLFCGKNCSDEYKKKNKVVAMCDYCKLQKIIKETVRFSGVDKPFCSEVCKFLSA | 0.126 ± 0.056
30 | KLKCQHCNHLFATKPELLEYKGKMFLFCGKNCSDEYKKKNKVVAMCDYCKLQKIIKETVRFSGVDKPFCSEVCKFLSA | 0.129 ± 0.031
31 | KLKCQHCNHLFATKPELLGYKGKMFLFCGKNCSDEYKKKNKVVAMCDYCKLQKIIKETVRFSGVDKPFCSEVCKFLSA | -0.053 ± 0.03
32 | KLKCQHCNHLFATKPELLIYKGKMFLFCGKNCSDEYKKKNKVVAMCDYCKLQKIIKETVRFSGVDKPFCSEVCKFLSA | -0.152 ± 0.34
33 | KLKCQHCNHLFATKPELLKYKGKMFLFCGKNCSDEYKKKNKVVAMCDYCKLQKIIKETVRFSGVDKPFCSEVCKFLSA | 0.182 ± 0.05
34 | KLKCQHCNHLFATKPELLMYKGKMFLFCGKNCSDEYKKKNKVVAMCDYCKLQKIIKETVRFSGVDKPFCSEVCKFLSA | -0.196 ± 0.064
35 | KLKCQHCNHLFATKPELLPYKGKMFLFCGKNCSDEYKKKNKVVAMCDYCKLQKIIKETVRFSGVDKPFCSEVCKFLSA | 0.101 ± 0.037
